Results as given in US20230227514A1, “BETA-ARRESTIN COMPOSITIONS AND ASSOCIATED METHODS” (Duke University, priority 2020, published 2023).

Experiments:
Format in all cases: cell-based
β2AR [1] = target: T1, β2AR (Homo sapiens, UniProt P07550); assay: BRET assay of βarrestin1 construct recruitment to β2AR; conditions: with or without isoproterenol stimulation
T1 construct: Flag (N); expressed in transfected cells
Description: The bar graph summarizes the BRET ratio corresponding to the recruitment of βarrestin1 or βarrestin1-SUMO1 fusion protein to the β2AR with or without isoproterenol (β2AR agonist) stimulation, as described in Example 1 herein.
(§1) BRET assays. […] Titration assays were first completed, which allowed determination of the specificity of association among different interaction partners. See Nagi and Shenoy. 2019, supra; Gales et al. 2005. Nature methods 2:177-184; Nagi et al. 2015. Cellular and molecular life sciences: CMLS 72:3543-3557; Audet and Pineyro. 2011. Methods in molecular biology 756:149-163; and Rebois et al. 2006. Journal of cell science 119:2807-2818. […] BRET readings were acquired using Synergy Neo2 plate reader and obtained 5 min after manual addition of Rluc substrate, coelenterazine h (Promega) to a final concentration of 5 μM.
(§2) The BRET signal generated was determined by calculating the ratio of light emitted by YFP (520-550 nm) over the light emitted by Rluc (440-480 nm). These values were then corrected by subtracting the background signal (detected when the Rluc-tagged construct was expressed without acceptor) from the BRET signal detected in cells co-expressing both donor and acceptor constructs. Agonist-induced BRET values were calculated by subtracting net BRET values of non-stimulated conditions from net BRET values corresponding to the stimulated conditions.

glucagon receptor (GCGR) = target: T2, glucagon receptor (GCGR) (Homo sapiens, UniProt P47871); assay: BRET assay of βarrestin1 construct recruitment to GCGR; conditions: GCGR activation with glucagon
T2 construct: expressed in transfected cells; host or cells: HEK-293T
Description: The bar graph summarizes the BRET ratio corresponding to the recruitment of βarrestin1 or βarrestin1-SUMO1 fusion protein to the GCGR with or without glucagon (GCGR agonist) stimulation, as described in Example 1 herein.
as §1, §2

β2AR [2] = target: T1, β2AR; assay: Confocal trafficking and colocalization with β2AR
Method: (§3) Immunostaining and confocal microscopy. […] Twenty-four hours post-transfection, cells were serum-starved for 4 h, and either left untreated or treated with respective agonists for the indicated times in the Figure descriptions. After stimulation, cells were fixed with 5% formaldehyde diluted in phosphate-buffered saline (PBS), permeabilized with 0.1% Triton in PBS containing 2% bovine serum albumin for 20 min and incubated at room temperature with appropriate primary antibody. The next day, cells were washed three times with PBS and incubated with Alexa594 conjugated secondary antibody for 1 h, followed by repeated washes using PBS. Confocal images were acquired using Zeiss LSM510 laser-scanning microscope using multitrack sequential with excitation (488 and 568 nm) and emission (BP 505-550 nm and LP 585 nm) filter sets. Images (1024×1024 pixels) were collected using either a 63× or 100× oil immersion lens. Images were processed for Figure presentation using Adobe Photoshop software, and any increase or decrease of brightness/contrast was applied to the entire image. The nuclear rim localization of YFP-βarrestin2-SUMO1 is readily visualized in cells with low to moderate expression of YFP-protein. In cells with high expression, this localization is present, and can be discerned by enlarging sections of the nuclear rim.
For βarrestin2-SUMO1, plasma membrane translocation was detected upon β2AR agonist activation, and, intriguingly, βarrestin2-SUMO1 was detected in endocytic vesicles. […] Confocal images were taken of cells stably expressing the β2AR and transiently expressing YFP-SUMO1 (data not shown). In both quiescent and agonist-treated cells, the SUMO1 protein remained in the nucleus. […] See Shenoy et al. 2007, supra; Shenoy and Lefkowitz. 2005. J Biol Chem 280:15315-15324; and Shenoy and Lefkowitz. 2003. J Biol Chem 278:14498-14506. Therefore, the endosomal trafficking was compared for βarrestin2-ubiquitin (βarrestin2-Ub) fusion protein and internalized β2ARs. […]

[3] = target: T3, D1 dopamine receptor (D1R) (Homo sapiens, UniProt P21728); assay: Confocal trafficking and colocalization with D1R; conditions: HEK-293 cells with stable D1R expression; dopamine 15 minutes
T3 construct: expressed in transfected cells
Method: as §3, with “rim. […]” for “rim.”

RanGAP1 [4] = assay: Western blotting of RanGAP1 levels on βarrestin2 overexpression; conditions: RanGAP1/GAPDH ratio, Western blot
Description: HEK-293T cells stably transfected with β2AR were transfected with vector or YFP-βarrestin2. […] The unmodified RanGAP1 band (70 kDa) was divided by cognate GAPDH and plotted as a ratio. The bar graph (bottom panel) summarizes values from three independent experiments. *p=0.006, unpaired t test.
In these experiments, SUMO1 by itself is not localized at the nuclear membrane in HEK-293 cells; only βarrestin2-SUMO1 is localized at the nuclear membrane. […] It is well established that RanGAP1 is expressed in cells predominantly in the SUMOylated state. This is illustrated in immunoblots (FIGS. 9-11), in which the RanGAP1 antibody detects two bands, SUMO-RanGAP1 (approximately 90 kDa) and RanGAP1 (approximately 70 kDa).

RanGAP1 [5] = target: T4, RanGAP1 (Homo sapiens, UniProt P46060); assay: Confocal colocalization with endogenous RanGAP1 at the nuclear envelope; conditions: HEK-293 cells with or without β2AR agonist stimulation
T4 construct: endogenous in cells; host or cells: HEK-293T / HEK-293
Method: as §3, with “rim. […]” for “rim.”

D2R = target: T5, D2R (Homo sapiens, UniProt P14416); assay: Confocal trafficking and colocalization with D2R; conditions: HEK-293 cells stably expressing D2R
T5 construct: HA (N); expressed in transfected cells
Method: as §3, with “rim. […]” for “rim.”

SUMO1 = target: T6, SUMO1 (Homo sapiens, UniProt P63165); assay: SUMOylation of FLAG-βarrestin2 constructs co-expressed with His6-SUMO1 (FLAG IP, immunoblot); conditions: overexpressed in HEK-293 cells along with His-SUMO1
T6 construct: His6 (N); expressed in transfected cells; host or cells: HEK-293 (transient)
Description: HEK-293 cells were transfected with vector, FLAG-βarrestin2 (WT) or FLAG-βarrestin2-K296R along with His6-SUMO1.
SUMOylation is targeted to a canonical protein sequence (Ψ-K-X-D/E), where Ψ is an aliphatic amino acid, K is the target site for the covalent modification by SUMO, X is any amino acid and is followed by an acidic residue. See Sampson et al. 2001. J Biol Chem 276:21664-21669. […] See Wyatt et al. 2011 and Xiao et al. 2015, both supra.

T2 sequence (P47871 26-477, species assumed): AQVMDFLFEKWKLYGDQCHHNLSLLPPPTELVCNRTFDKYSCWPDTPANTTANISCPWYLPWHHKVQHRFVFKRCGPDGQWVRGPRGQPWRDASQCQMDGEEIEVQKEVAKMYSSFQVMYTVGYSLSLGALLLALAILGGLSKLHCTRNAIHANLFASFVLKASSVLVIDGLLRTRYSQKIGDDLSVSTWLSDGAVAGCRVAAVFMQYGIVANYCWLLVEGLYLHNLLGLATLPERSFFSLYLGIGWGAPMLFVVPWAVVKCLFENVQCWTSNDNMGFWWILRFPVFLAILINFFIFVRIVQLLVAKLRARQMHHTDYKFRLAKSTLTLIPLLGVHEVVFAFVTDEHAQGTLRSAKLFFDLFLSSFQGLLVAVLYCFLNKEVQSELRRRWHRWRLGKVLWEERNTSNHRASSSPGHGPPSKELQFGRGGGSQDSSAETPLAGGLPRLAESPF
T3 sequence (P21728 whole entry): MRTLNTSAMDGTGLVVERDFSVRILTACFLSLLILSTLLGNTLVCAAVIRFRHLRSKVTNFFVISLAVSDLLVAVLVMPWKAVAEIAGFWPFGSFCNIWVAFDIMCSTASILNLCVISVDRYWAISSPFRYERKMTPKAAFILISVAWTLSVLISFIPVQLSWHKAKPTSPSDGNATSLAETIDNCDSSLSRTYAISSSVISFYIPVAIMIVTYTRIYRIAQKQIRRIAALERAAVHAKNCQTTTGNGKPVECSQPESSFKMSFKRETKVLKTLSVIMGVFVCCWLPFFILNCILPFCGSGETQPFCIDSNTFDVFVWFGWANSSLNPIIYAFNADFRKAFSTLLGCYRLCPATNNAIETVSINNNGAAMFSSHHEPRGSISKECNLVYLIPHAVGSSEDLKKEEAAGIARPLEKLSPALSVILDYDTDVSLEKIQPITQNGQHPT
T6 sequence (P63165 1-97 limits assumed): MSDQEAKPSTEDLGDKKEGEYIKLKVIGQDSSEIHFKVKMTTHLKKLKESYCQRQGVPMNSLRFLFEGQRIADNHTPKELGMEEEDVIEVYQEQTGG
T5 sequence (P14416 whole entry): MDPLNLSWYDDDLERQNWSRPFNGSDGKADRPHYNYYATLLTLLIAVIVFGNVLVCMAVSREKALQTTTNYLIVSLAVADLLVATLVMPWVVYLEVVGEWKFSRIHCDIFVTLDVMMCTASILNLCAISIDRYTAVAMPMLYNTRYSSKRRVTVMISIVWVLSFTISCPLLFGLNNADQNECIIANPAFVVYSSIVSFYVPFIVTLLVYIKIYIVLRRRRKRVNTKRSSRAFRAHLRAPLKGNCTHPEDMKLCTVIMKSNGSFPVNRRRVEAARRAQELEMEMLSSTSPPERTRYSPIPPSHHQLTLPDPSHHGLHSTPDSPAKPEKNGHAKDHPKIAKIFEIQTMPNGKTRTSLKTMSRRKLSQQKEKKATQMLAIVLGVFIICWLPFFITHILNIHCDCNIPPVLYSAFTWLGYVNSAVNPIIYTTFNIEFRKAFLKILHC
T4 sequence (P46060 2-587 limits assumed): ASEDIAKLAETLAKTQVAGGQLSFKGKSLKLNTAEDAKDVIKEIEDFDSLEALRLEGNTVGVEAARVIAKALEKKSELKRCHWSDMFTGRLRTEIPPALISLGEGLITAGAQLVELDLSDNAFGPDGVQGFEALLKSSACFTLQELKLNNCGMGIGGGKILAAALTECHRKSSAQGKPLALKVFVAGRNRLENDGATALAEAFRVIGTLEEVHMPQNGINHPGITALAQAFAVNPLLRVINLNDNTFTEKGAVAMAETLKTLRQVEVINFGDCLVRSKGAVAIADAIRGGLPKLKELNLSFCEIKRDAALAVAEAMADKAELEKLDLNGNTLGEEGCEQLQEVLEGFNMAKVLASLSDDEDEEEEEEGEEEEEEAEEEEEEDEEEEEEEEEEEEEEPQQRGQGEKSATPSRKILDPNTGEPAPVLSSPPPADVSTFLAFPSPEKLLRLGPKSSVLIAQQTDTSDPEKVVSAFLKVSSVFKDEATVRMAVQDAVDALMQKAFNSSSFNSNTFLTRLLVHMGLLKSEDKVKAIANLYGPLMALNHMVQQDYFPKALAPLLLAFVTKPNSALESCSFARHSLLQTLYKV
T4 sequence (P63165 2-97 partner limits assumed): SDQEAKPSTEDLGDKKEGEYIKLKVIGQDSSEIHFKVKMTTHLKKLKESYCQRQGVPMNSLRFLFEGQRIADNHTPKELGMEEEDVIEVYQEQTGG

Molecule: βarrestin1-SUMO1: rat βarrestin1 polypeptide fused to human SUMO1 (SEQ ID NO:2)
- association with β2AR by BRET ratio (β2AR [1]): significantly more binding
- association with GCGR by BRET (glucagon receptor (GCGR)): significantly more binding
- colocalization of βarrestin1 constructs with β2AR (confocal) (β2AR [2]; HEK-293 cells, isoproterenol): strong colocalization

Molecule: βarrestin2: wild-type rat βarrestin2 (SEQ ID NO:3), tagged, used as comparator [reference compound]
- association with D1R after dopamine activation (confocal) [3]: weak association
- colocalization / complexes with β2AR after agonist activation (confocal) (β2AR [2]; HEK-293 cells with stable β2AR expression, agonist up to 20 minutes): no colocalization was detected
- increase of unmodified RanGAP1 band (approximately 70 kDa) versus vector transfected cells (RanGAP1 [4]): 50%
- colocalization with endogenous RanGAP1 at the nuclear envelope (RanGAP1 [5]): Minimal colocalization
- stability of association with activated D2R (confocal) (D2R): not stable

Molecule: βarrestin1: wild-type rat βarrestin1 (SEQ ID NO:4), used as comparator [reference compound]
- association with β2AR by BRET ratio (β2AR [1]): weak association
- association with GCGR by BRET (glucagon receptor (GCGR)): weak association

B1: βarrestin2-K296R: rat βarrestin2 with lysine-296 of the canonical SUMOylation site mutated to arginine (protein)
chain: MGEKPGTRVFKKSSPNCKLTVYLGKRDFVDHLDKVDPVDGVVLVDPDYLKDRKVFVTLTCAFRYGREDLDVLGLSFRKDLFIATYQAFPPMPNPPRPPTRLQDRLLKKLGQHAHPFFFTIPQNLPCSVTLQPGPEDTGKACGVDFEIRAFCAKSIEEKSHKRNSVRLIIRKVQFAPETPGPQPSAETTRHFLMSDRRSLHLEASLDKELYYHGEPLNVNVHVTNNSAKTVKKIRVSVRQYADICLFSTAQYKCPVAQLEQDDQVSPSSTFCKVYTITPLLSDNREKRGLALDGQLRHEDTNLASSTIVKEGANKEVLGILVSYRVKVKLVVSRGGDVSVELPFVLMHPKPHDHITLPRPQSAPREIDIPVDTNLIEFDTNYATDDDIVFEDFARLRLKGMKDDDCDDQFC
modifications: left off: large carriers
- SUMOylation compared with rat βarrestin2 (WT) (SUMO1): significantly decreased but not eliminated
